Results taken from patent publication US11466255B2, “Methods and compositions for converting non-endocrine pancreatic tissue into insulin-producing cells” (UNIVERSITY OF MIAMI, priority 2015, dated 2022).

What was measured:
[1] = system: stz-treated diabetic mice; test: Systemic BMP-7 in stz-treated diabetic CD1 mice; format: in vivo, mouse; details: BMP-7 500 μg/kg IP daily for 30 days, stz 200 mg/kg
Protocol: Systemic BMP-7 (500 μg/kg) is administered to CD1 mice by means of intraperitoneal (IP) injection daily for 30 days. This dose is within the range reported for rodents in other BMP administration settings^18,67-69, and is refined in subsequent preclinical experiments. Acute diabetes is induced by a single injection of stz (200 mg/kg) prior to BMP-7 treatment. Controls receive saline by the same route. […] Similar doses^18 are effective at reversing kidney fibrosis. Ten animals/group are used. Half of the animals in each group receive BrdU in the water. Mice are euthanized 30 days after initiation of treatment, or earlier if diabetes reversal is observed. Glycemia is monitored daily at the same time, right before injection. IPGTTs and determination of PI/I ratios is done at 14 and 30 days. Upon euthanasia, the pancreas and other organs are harvested and analyzed by a pathologist to establish if there are tumorigenic or otherwise toxic effects associated with the treatment. The pancreas is also studied by IF in search of potential β-cell/endocrine cell neogenesis and/or signs of β-cell/endocrine cell proliferation (BrdU-treated animals) when compared to saline-treated controls. […] Relative quantification of β-cell/endocrine cell neogenesis are done using normalized total insulin quantification and the imaging techniques described in Example 4 and^17. […]

pure islet preparations = test: Pure islet preparations treated with BMP-7 (colony formation); format: cell-based, human; details: n=3
ALK3+ cells from hNEPT = test: BMP-7 response of ALK3-enriched / ALK3+-sorted fraction; format: cell-based, human
Protocol: (§1) Magnetic bead-based methods (Miltenyi) were used for the enrichment of ALK3+ cells from hNEPT. Both enriched and negative fractions are subsequently plated and treated with BMP-7 or left untreated (controls).
(§2) The identity of sorted cells is confirmed by IF, and aliquots are cultured in adherent conditions. Single sorted pancreatic cells are notoriously difficult to culture in plastic, which is addressed by using a combination of Matrigel®-coated plates and fully defined media [STEMPRO® (Thermofisher Scientific, Grand Island, N.Y.) or Kubota's Medium® (PhoenixSongs Biologicals Branford, Conn.)]^8,29,48,49 Matrigel® is used to grow multipotent pancreatic cells^50,51. Colonies from dissociated ALK3^+ cells sorted from fresh hNEPT are readily grown in these conditions, and resemble those obtained from the MPD without sorting. The typical “ring” morphology described by others^50,51 is observed when plating ALK3^+ cells in 3D conditions or fibroblast feeder cells.

stz-treated mice = details: systemic BMP-7; cited from earlier work
[2] = reconstituted solution; cited from earlier work
ALK3- fraction of hNEPT = test: BMP-7 response of ALK3- fraction; format: cell-based, human; details: qRT-PCR
Protocol: as §1, §2

[3] = system: SMAD1/5/8 phosphorylation; test: SMAD1/5/8 phosphorylation by immunofluorescence in hNEPT; format: cell-based, human; details: 2 h after the addition of BMP-7 to hNEPT
Source text: In order to study the mechanism behind the effects of BMP-7 on hNEPT preparations, the potential receptors engaged by BMP-7 were studied. BMP-7 binds with high affinity to heteromeric complexes formed by BMPR2 (Bone Morphogenetic Receptor Type II) and the activin-like kinase (ALK) ALK3, ALK6 or ALK2 type I serine/threonine kinase receptors^25. […] These findings are consistent with numerous reports that identify ALK3 as the receptor that mediates BMP-7 function in several biological models of regeneration, including adult liver regrowth^23, differentiation of epidermal Langerhans cells^24 and kidney regeneration and fibrosis reversa1^22. The activation of the canonical BMP signaling pathway entails the phosphorylation of SMAD1/5/8 upon ALK3 engagement.
IF analysis and confocal microscopy: The present study was conducted on human pancreatic samples from cadaveric organ donors. In addition to our own cGMP facility, the Network for Pancreatic Organ Donors with Diabetes (nPOD, www.jdrfnpod.org)55 also provided tissue sections. For IF staining, 5 μm-thick frozen sections or cultured cells were fixed with 4% paraformaldehyde (PFA) for 20 min at room temperature, rinsed with HBSS, washed (3 x 5 min each) with lx Supersensitive Wash Buffer (Biogenex HK583-5K) and then incubated in permeabilization buffer PBSTr [0.2% Triton X-100 (Sigma-Aldrich) in PBS] for 30 min at room temperature. […]

B1: BMP-7: 35 kDa homodimeric protein of the TGF-β superfamily; FDA-approved agent; human mature chain SEQ ID NO:1/2 (protein, listed as Homo sapiens)
chain: IRSTGSKQRSQNRSKTPKNQEALRMANVAENSSSDQRQACKKHELYVSFRDLGWQDWIIAPEGYAAYYCEGECAFPLNSYMNATNHAIVQTLVHFINPETVPKPCCAPTQLNAISVLYFDDSSNVILKKYRNMVVRACGCH
modifications: homodimer; human mature chain of BMP-7 (NCBI Reference Sequence NM_001719.2) comprising peptide from 293-431
glycemia vs. controls [1]: glycemic improvements
colony formation (pure islet preparations): failed to give rise to colonies
increase in insulin expression vs. non-BMP-7 treated controls (ALK3+ cells from hNEPT; ALK3+-sorted cells, preliminary qRT-PCR): 10^3 fold
response in terms of C-peptide production (ALK3+ cells from hNEPT; magnetic bead ALK3-enriched fraction, only this fraction responds): BMP-7-responsive
effect on hyperglycemia of stz-treated mice (stz-treated mice): corrected the hyperglycemia
time reconstituted BMP-7 is active [2]: 2 to 7 days
response to BMP-7 (ALK3- fraction of hNEPT): did not show any response
SMAD1/5/8 phosphorylation in ALK3-expressing cells [3]: presented SMAD1/5/8 phosphorylation
